From patent US20180112202A1 (ACE BIOSCIENCES A S, published 2018)

Biological target: the molecule itself
Assay: Native PAGE, self-association; the cell continues below as 'dimer ~7 forms visible from monomer to multimer'
From the text: Native PAGE was run for information of rhGALC formations at neutral pH. […] Final product TG1106 was compared to rhGALC in-house standard StG03 and the pattern was similar. It could be that the lowest band (apparent MW 80-100 kDa) is rhGALC monomer and the second band is rhGALC dimer, followed by formations adding on more rhGALC monomers and/or dimers. Up to seven forms of rhGALC were visualized on the gel. rhGALC dimer was the most pronounced independent on load. An earlier electron microscopy study has verified that several forms exist of which the major form has a diameter of ˜20 nm, which could correspond to rhGALC dimer.

B1: recombinant human Galactocerebroside beta-Galactosidase (rhGALC), full length 80 kDa form (enzyme)
chain: YVLDDSDGLGREFDGIGAVSGGGATSRLLVNYPEPYRSQILDYLFKPNFGASLHILKVEIGGDGQTTDGTEPSHMHYALDENYFRGYEWWLMKEAKKRNPNITLIGLPWSFPGWLGKGFDWPYVNLQLTAYYVVTWIVGAKRYHDLDIDYIGIWNERSYNANYIKILRKMLNYQGLQRVKIIASDNLWESISASMLLDAELFKVVDVIGAHYPGTHSAKDAKLTGKKLWSSEDFSTLNSDMGAGCWGRILNQNYINGYMTSTIAWNLVASYYEQLPYGRCGLMTAQEPWSGHYVVESPVWVSAHTTQFTQPGWYYLKTVGHLEKGGSYVALTDGLGNLTIIIETMSHKHSKCIRPFLPYFNVSQQFATFVLKGSFSEIPELQVWYTKLGKTSERFLFKQLDSLWLLDSDGSFTLSLHEDELFTLTTLTTGRKGSYPLPPKSQPFPSTYKDDFNVDYPFFSEAPNFADQTGVFEYFTNIEDPGEHHFTLRQVLNQRPITWAADASNTISIIGDYNWTNLTIKCDVYIETPDTGGVFIAGRVNKGGILIRSARGIFFWIFANGSYRVTGDLAGWIIYALGRVEVTAKKWYTLTLTIKGHFASGMLNDKSLWTDIPVNFPKNGWAAIGTHSFEFAQFDNFLVEATR
modifications: glycosylated (about 7% carbohydrate w:w, 2-3 mol mannose-6-phosphate per mol), sites not stated
notes: Expressed in CHO cells and purified from harvest; P45803 looks like a misprint; also called Galactocerebrosidase; Galactosylceramidase
B1: binds.
